Source: patent US20240059759A1 (BIGHAT BIOSCIENCES, published 2024)
Residue numbers refer to the chain shown, from its start. Names and notes keep the numbering of the source.

B1: VHH-72(S57G) (VHH)
VHH: QVQLQESGGGLVQAGGSLRLSCAASGRTFSEYAMGWFRQAPGKEREFVATISWSGGGTYYTDSVKGRFTISRDNAKNTVYLQMNSLKPDDTAVYYCAAAGLGTVVSEWDYDYDYWGQGTQVTVSS
B2: VHH-72 (S57A) (VHH)
VHH: B1 VHH with G57A
B3: VHH-72(D61A) (VHH)
VHH: B1 VHH with G57S, D62A
B4: VHH-72(S57T) (VHH)
VHH: B1 VHH with G57T
B5: VHH-72 (S57Y) (VHH)
VHH: B1 VHH with G57Y
B6: VHH-72 (S57A, Y60H) (VHH)
VHH: B1 VHH with G57A, Y60H
B7: VHH-72 (S57A, Y60T) (VHH)
VHH: B1 VHH with G57A, Y60T
B8: VHH-72 variant expressing both S57A and D61A (VHH)
VHH: B1 VHH with G57A, D62A
B9: VHH-72(S57S) (VHH)
VHH: B1 VHH with G57S

Tests used:
[1] = target: T1, SARS-CoV-2 RBD (SinoBiological, Cat. No. 40592-V02H) (SARS-CoV-2, UniProt P0DTC2 319-541); experiment: ELISA on SARS-CoV-2 RBD
T1 construct: domain: RBD

[2] = target: T1, SARS-CoV-2 RBD (SinoBiological, Cat. …); experiment: ELISA on RBD
[3] = target: T1, SARS-CoV-2 RBD (SinoBiological, Cat. …); experiment: ELISA on RBD, compared with wildtype VHH-72
[4] = target: T1, SARS-CoV-2 RBD (SinoBiological, Cat. …); experiment: ELISA, relative EC50
[5] = target: T1, SARS-CoV-2 RBD (SinoBiological, Cat. …)

Row | Binder | Rel. EC50 - ELISA [1] | EC50 [2] [µg/mL] | other results
1 | B1 | 0.09 relative to WT |  | 
2 | B2 | 0.05 relative to WT | 0.09 | fold increase in RBD affinity [3]: 22 fold
3 | B3 |  | 0.51 | fold increased RBD binding [3]: 4 fold
4 | B4 |  |  | binding result [4]: no binding
5 | B5 | 0.28 relative to WT |  | fold increased apparent affinity [3]: ~4 fold
6 | B6 |  | 0.029 | fold further-increased apparent RBD affinity [5]: ~3.5 fold
7 | B7 |  | 0.024 | fold further-increased apparent RBD affinity [5]: ~3.5 fold
8 | B8 |  | 0.012 | fold improved binding compared to the wildtype VHH-72 [3]: > 160 fold
9 | B9 | 1 relative to WT |  | 
